Experimental data taken from patent publication US8530190 (MERCK SERONO, dated 2013).
Residue numbers refer to the chain shown, from its start. Numbers in names are those of the source. Values belong to the binder of their own block, whether it stands above or below them.

Columns and labels:
[1] = biological target: T1, rat LH receptor (rat, UniProt P16235 27-700); assay: hormone-receptor complex formation (Table 1D)
T1 construct: whole, on cells; also called LH receptors

[2] = biological target: T2, human FSH receptor (human, UniProt P23945 18-695); assay: hormone-receptor complex formation (Table 1D)
T2 construct: whole, on cells; also called hFSH receptors
T2 sequence (looked up): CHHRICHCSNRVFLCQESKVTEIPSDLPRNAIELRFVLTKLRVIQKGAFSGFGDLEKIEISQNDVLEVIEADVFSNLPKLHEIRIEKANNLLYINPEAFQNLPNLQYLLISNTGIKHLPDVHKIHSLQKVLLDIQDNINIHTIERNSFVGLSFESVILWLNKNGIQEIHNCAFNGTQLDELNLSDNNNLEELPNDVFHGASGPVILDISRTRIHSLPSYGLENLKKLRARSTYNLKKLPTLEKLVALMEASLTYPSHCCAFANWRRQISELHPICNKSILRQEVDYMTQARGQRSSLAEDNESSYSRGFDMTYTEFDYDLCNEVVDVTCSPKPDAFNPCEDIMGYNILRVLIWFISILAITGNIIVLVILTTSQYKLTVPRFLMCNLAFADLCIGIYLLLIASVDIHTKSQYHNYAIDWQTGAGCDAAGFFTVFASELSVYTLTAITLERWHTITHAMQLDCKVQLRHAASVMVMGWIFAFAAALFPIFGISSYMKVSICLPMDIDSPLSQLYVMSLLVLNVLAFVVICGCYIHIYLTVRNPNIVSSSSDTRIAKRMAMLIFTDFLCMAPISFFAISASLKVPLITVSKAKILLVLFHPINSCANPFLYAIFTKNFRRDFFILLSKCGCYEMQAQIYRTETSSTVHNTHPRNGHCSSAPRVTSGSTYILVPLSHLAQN

[3] = biological target: T1, rat LH receptor; assay: inhibition of radiolabeled hCG binding to LH receptors (FIG. 22)
[4] = biological target: T1, rat LH receptor; assay: receptor binding and signal transduction assays
[5] = biological target: T2, human FSH receptor; assay: receptor binding and signal transduction assays
[6] = biological target: T1, rat LH receptor; assay: inhibition of radiolabeled hCG binding to LH receptors (FIG. 23)
[7] = biological target: T1, rat LH receptor; assay: inhibition of 125I-hCG binding to CHO cells expressing LH receptors (FIG. 17)
From the text: (§1) These employed CHO cells that had been transfected with the genes encoding the LH receptor cDNA and that therefore express functional LH receptors on their surfaces.

[8] = biological target: T1, rat LH receptor; assay: inhibition of 125I-hCG binding to 200,000 CHO cells that express LH receptors (FIG. 6)
From the text: as §1

[9] = biological target: T1, rat LH receptor; assay: inhibition of 125I-hCG binding to CHO cells expressing LH receptors (FIG. 30)
From the text: as §1

[10] = biological target: T1, rat LH receptor; assay: competition with radiolabeled hCG on CHO cells expressing LH receptors (FIG. 18)
From the text: as §1

T1 sequence (P16235 27-700): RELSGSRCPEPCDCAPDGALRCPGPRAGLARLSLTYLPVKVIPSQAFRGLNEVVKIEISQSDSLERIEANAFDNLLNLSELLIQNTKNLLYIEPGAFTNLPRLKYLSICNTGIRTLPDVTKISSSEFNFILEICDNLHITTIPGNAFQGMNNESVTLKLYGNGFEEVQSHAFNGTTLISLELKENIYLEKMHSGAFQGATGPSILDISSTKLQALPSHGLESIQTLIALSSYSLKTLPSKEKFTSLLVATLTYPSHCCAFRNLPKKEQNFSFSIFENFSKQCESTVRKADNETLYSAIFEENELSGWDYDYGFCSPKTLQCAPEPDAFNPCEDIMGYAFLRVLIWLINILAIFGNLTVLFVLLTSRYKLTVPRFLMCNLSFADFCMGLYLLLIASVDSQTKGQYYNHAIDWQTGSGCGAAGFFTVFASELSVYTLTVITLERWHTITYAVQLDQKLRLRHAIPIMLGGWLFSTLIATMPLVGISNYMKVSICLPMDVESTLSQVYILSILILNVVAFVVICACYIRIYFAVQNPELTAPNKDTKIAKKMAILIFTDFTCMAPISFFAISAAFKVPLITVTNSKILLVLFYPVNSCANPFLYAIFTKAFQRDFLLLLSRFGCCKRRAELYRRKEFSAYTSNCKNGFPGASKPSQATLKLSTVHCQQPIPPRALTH

B1: CF101-109 (ligand)
chain 1: not shown
chain 2: SKEPLRPRCRPINATLAVEKEGCPVCITVNTTICAGYCPTMTRVLQGVLPALPQVVCNYRDVRFESIRLPGCPRGVNPVVSYAVALSCQCALCRRSTTDCTVRGLGPSYCDDPRFQDSSSSKAPPPSLPSPSRLPGPSDTPILPQ
- binding result [1]: binds
- binding result [2]: binds

B2: CFC101-114(αK51C-β) (ligand)
chain 1: not shown
chain 2: B1 chain 2 with D111S, D112F, P113G, R114E
- binding result [3]: binds

B3: CFC101-114(α51-β99) (ligand)
chain 1: not shown
chain 2: B1 chain 2 with D99C, D111S, D112F, P113G, R114E
notes: Intersubunit disulfide αCys51-βCys99; also called CFC101(α51-β99)
- fold less active than CFC101-114 in inhibiting radiolabeled hCG binding [3]: ~100 fold

B4: CFC101-114 (ligand)
chain 1: not shown
chain 2: B1 chain 2 with D111S, D112F, P113G, R114E
notes: also called bifunctional hCG/hFSH chimeric analog
- binding result [4]: binds
- binding result [5]: binds

B5: CFC101-114(αK51A-β) (ligand)
chain 1: not shown
chain 2: B1 chain 2 with D111S, D112F, P113G, R114E
notes: built on the mature α-subunit entry
- binding result [6]: binds

B6: CFC101-114(α-βD99C) (ligand)
chain 1: not shown
chain 2: B1 chain 2 with D99C, D111S, D112F, P113G, R114E
- binding result [3]: binds

B7: hCG(α-βD99C) (ligand)
chain 1: not shown
chain 2: B1 chain 2 with D99C, T101G, V102G, R103P, G104K, L105D, G106H, S108L, Y109T
notes: also called hCG(α-β99)
- binding result [7]: binds

The next lines start with the values.

- binding result [8]: binds
B8: hCG(α31-β37) (ligand)
chain 1: not shown
chain 2: B1 chain 2 with Y37C, T101G, V102G, R103P, G104K, L105D, G106H, S108L, Y109T
notes: Intersubunit disulfide αCys31-βCys37; also called hCG3(α31-β37); crosslinked hCG analog

- binding result [9]: binds
B9: hCG(α31-β37, α51-β99) (ligand)
chain 1: not shown
chain 2: B1 chain 2 with Y37C, D99C, T101G, V102G, R103P, G104K, L105D, G106H, S108L, Y109T
notes: Two intersubunit disulfides; also called α(C7S,K51C) + hCGβ′(Y37C,D99C)

- binding result [10]: binds
B10: hCG(αK51A-β) (ligand)
chain 1: not shown
chain 2: B1 chain 2 with T101G, V102G, R103P, G104K, L105D, G106H, S108L, Y109T
notes: as for B5

- binding result [4]: binds
- binding result [5]: binds
B11: CFC101-114(α31-β37) (ligand)
chain 1: not shown
chain 2: B1 chain 2 with Y37C, D111S, D112F, P113G, R114E
notes: Intersubunit disulfide αCys31-βCys37
